Data: PMC8782398

How the values were obtained:
[1] = target: human NOP receptor in HEK293 cells (human) (UniProt P41146)
[2] = target: human NOP receptor in HEK293 cells (human) (UniProt P41146); remark: listed apart in the source
[3] = target: human NOP receptor in HEK293 cells (human) (UniProt P41146); remark: listed apart in the source

human NOP receptor in HEK293 cells (human), sequence (P41146 whole entry): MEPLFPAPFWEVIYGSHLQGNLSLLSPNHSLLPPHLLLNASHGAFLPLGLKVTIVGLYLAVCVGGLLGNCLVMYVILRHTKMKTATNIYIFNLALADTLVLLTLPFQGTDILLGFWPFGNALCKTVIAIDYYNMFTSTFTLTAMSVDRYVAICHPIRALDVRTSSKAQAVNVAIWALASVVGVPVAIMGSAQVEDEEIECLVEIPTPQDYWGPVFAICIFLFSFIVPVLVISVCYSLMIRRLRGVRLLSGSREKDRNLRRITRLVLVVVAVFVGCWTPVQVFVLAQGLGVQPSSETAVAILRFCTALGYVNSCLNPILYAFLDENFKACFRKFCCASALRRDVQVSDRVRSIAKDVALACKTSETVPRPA

## human MOP receptor in HEK293 cells (from UniProt P35372 1-400)
[1]
  ERK1/2 phosphorylation (fold over basal), 1 μM Dermorphin, HEK (MOP/NOP) cells, 2.5-30 min; peak at 10 min: 11.8 fold
[2]
  ERK1/2 phosphorylation (fold over basal), 1 μM N/OFQ, HEK (MOP/NOP) cells, 2.5-30 min; peak at 7.5-10 min: 5 fold
[3]
  GTPγ[35S] binding stimulated by De101, HEK (MOP/NOP) membranes: pEC50: 8.67
  GTPγ[35S] binding stimulated by DeNO, HEK (MOP/NOP) membranes: pEC50: 7.63
  GTPγ[35S] binding stimulated by Dermorphin, HEK (MOP/NOP) membranes: pEC50: 7.6
  inhibition of cAMP formation by De101, HEK (MOP/NOP) cells: Emax (% inhibition): 86%
  inhibition of cAMP formation by De101, HEK (MOP/NOP) cells: pEC50: 8.81
  inhibition of cAMP formation by DeNO, HEK (MOP/NOP) cells: Emax (% inhibition): 88.6%
  inhibition of cAMP formation by DeNO, HEK (MOP/NOP) cells: pEC50: 7.55
  inhibition of cAMP formation by Dermorphin & N/OFQ (co-administered), HEK (MOP/NOP) cells: Emax (% inhibition): 81.3%
  inhibition of cAMP formation by Dermorphin & UFP-101 (co-administered), HEK (MOP/NOP) cells: Emax (% inhibition): 84.4%
  inhibition of cAMP formation by Dermorphin & UFP-101 (co-administered), HEK (MOP/NOP) cells: pEC50: 8.95
  inhibition of cAMP formation by Dermorphin, HEK (MOP/NOP) cells: Emax (% inhibition): 81.4%
  inhibition of cAMP formation by Dermorphin, HEK (MOP/NOP) cells: pEC50: 7.59
  inhibition of cAMP formation by N/OFQ, HEK (MOP/NOP) cells: Emax (% inhibition): 86.3%
  inhibition of cAMP formation by N/OFQ, HEK (MOP/NOP) cells: pEC50: 9.17
